Test results published in IntAct's records for PubMed 31515488.

B1: Melanoma-associated antigen 8 (Homo sapiens), P43361 (parent)
chain: MLLGQKSQRYKAEEGLQAQGEAPGLMDVQIPTAEEQKAASSSSTLIMGTLEEVTDSGSPSPPQSPEGASSSLTVTDSTLWSQSDEGSSSNEEEGPSTSPDPAHLESLFREALDEKVAELVRFLLRKYQIKEPVTKAEMLESVIKNYKNHFPDIFSKASECMQVIFGIDVKEVDPAGHSYILVTCLGLSYDGLLGDDQSTPKTGLLIIVLGMILMEGSRAPEEAIWEALSVMGLYDGREHSVYWKLRKLLTQEWVQENYLEYRQAPGSDPVRYEFLWGPRALAETSYVKVLEHVVRVNARVRISYPSLHEEALGEEKGV
partner: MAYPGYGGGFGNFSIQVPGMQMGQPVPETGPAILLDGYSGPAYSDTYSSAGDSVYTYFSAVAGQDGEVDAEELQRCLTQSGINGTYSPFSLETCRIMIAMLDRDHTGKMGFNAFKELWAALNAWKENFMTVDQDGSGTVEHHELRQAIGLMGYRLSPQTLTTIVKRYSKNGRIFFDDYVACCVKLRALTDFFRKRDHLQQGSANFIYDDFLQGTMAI
B2: Tripartite motif-containing protein 10 (Homo sapiens), Q9UDY6 (parent)
chain: MASAASVTSLADEVNCPICQGTLREPVTIDCGHNFCRACLTRYCEIPGPDLEESPTCPLCKEPFRPGSFRPNWQLANVVENIERLQLVSTLGLGEEDVCQEHGEKIYFFCEDDEMQLCVVCREAGEHATHTMRFLEDAAAPYREQIHKCLKCLRKEREEIQEIQSRENKRMQVLLTQVSTKRQQVISEFAHLRKFLEEQQSILLAQLESQDGDILRQRDEFDLLVAGEICRFSALIEELEEKNERPARELLTDIRSTLIRCETRKCRKPVAVSPELGQRIRDFPQQALPLQREMKMFLEKLCFELDYEPAHISLDPQTSHPKLLLSEDHQRAQFSYKWQNSPDNPQRFDRATCVLAHTGITGGRHTWVVSIDLAHGGSCTVGVVSEDVQRKGELRLRPEEGVWAVRLAWGFVSALGSFPTRLTLKEQPRQVRVSLDYEVGWVTFTNAVTREPIYTFTASFTRKVIPFFGLWGRGSSFSLSS
partner: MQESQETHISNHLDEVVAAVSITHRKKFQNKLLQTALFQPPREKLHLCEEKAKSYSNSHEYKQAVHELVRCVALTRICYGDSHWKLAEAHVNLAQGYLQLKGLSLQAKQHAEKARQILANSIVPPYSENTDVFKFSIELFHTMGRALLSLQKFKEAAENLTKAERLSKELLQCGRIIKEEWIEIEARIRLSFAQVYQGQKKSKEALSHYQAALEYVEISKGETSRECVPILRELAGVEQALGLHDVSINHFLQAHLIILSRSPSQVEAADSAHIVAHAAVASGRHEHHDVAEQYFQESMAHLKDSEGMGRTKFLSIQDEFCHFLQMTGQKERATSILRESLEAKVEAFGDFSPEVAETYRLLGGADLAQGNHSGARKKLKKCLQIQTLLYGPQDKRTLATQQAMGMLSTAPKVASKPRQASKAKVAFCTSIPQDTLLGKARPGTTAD
B3: Melanoma-associated antigen F1 (Homo sapiens), Q9HAY2 (parent)
chain: MLQTPESRGLPVPQAEGEKDGGHDGETRAPTASQERPKEELGAGREEGAAEPALTRKGARALAAKALARRRAYRRLNRTVAELVQFLLVKDKKKSPITRSEMVKYVIGDLKILFPDIIARAAEHLRYVFGFELKQFDRKHHTYILINKLKPLEEEEEEDLGGDGPRLGLLMMILGLIYMRGNSAREAQVWEMLRRLGVQPSKYHFLFGYPKRLIMEDFVQQRYLSYRRVPHTNPPEYEFSWGPRSNLEISKMEVLGFVAKLHKKEPQHWPVQYREALADEADRARAKARAEASMRARASARAGIHLW

Variants of: B1
Conditions: with gran_human GCA

| effect of a mutation on the interaction | Variant |
| --- | --- |
| with no effect | MLLGQKSQRYKAEEGLQAQGEAPGLMDVQIPTAEEQKAASSSSTLIMGTLEEVTDSGSPSPPQSPEGASSSLTVTDSTLWSQSDEGSSSNEEEGPSTSPDPAHLESLFREALDEKVAELVHFLLRKYQIKEPVTKAEMLESVIKNYKNHFPDIFSKASECMQVIFGIDVKEVDPAGHSYILVTCLGLSYDGLLGDDQSTPKTGLLIIVLGMILMEGSRAPEEAIWEALSVMGLYDGREHSVYWKLRKLLTQEWVQENYLEYRQAPGSDPVRYEFLWGPRALAETSYVKVLEHVVRVNARVRISYPSLHEEALGEEKGV [R121H] |

Variants of: B2
Conditions: with ttc23_human TTC23, Q5W5X9

| Variant | effect of a mutation on the interaction |
| --- | --- |
| MASAASVTSLADEVNCPICQGTLREPVTIDCGHNFCRACLTRYCEIPGPDLEESPTCPLCKEPFRPGSFRPNWQLANVVENIERLQLVSTLGLGEEDVCQEHGEKIYFFCEDDEMQLCVVCREAGEHATHTMRFLEDAAAPYREQIHKCLKCLRKEREEIEEIQSRENKRMQVLLTQVSTKRQQVISEFAHLRKFLEEQQSILLAQLESQDGDILRQRDEFDLLVAGEICRFSALIEELEEKNERPARELLTDIRSTLIRCETRKCRKPVAVSPELGQRIRDFPQQALPLQREMKMFLEKLCFELDYEPAHISLDPQTSHPKLLLSEDHQRAQFSYKWQNSPDNPQRFDRATCVLAHTGITGGRHTWVVSIDLAHGGSCTVGVVSEDVQRKGELRLRPEEGVWAVRLAWGFVSALGSFPTRLTLKEQPRQVRVSLDYEVGWVTFTNAVTREPIYTFTASFTRKVIPFFGLWGRGSSFSLSS [Q161E] | with no effect |
| MASAASVTSLADEVNCPICQGTLREPVTIDCGHNFCRACLTRYCEIPGPDLEESPTCPLCKEPFRPGSFRPNWQLANVVENIERLQLVSTLGLGEEDVCQEHGEKIYFFCEDDEMQLCVVCREAGEHATHTMRFLEDAAAPYREQIHKCLKCLRKEREEIQEIQSRENKRMQVLLTQVSTKRQQVISEFAHLRKFLEEQQSILLAQLESQDGDILRQRDEFDLLVAGEICRFSALTEELEEKNERPARELLTDIRSTLIRCETRKCRKPVAVSPELGQRIRDFPQQALPLQREMKMFLEKLCFELDYEPAHISLDPQTSHPKLLLSEDHQRAQFSYKWQNSPDNPQRFDRATCVLAHTGITGGRHTWVVSIDLAHGGSCTVGVVSEDVQRKGELRLRPEEGVWAVRLAWGFVSALGSFPTRLTLKEQPRQVRVSLDYEVGWVTFTNAVTREPIYTFTASFTRKVIPFFGLWGRGSSFSLSS [I236T] | disrupting interaction strength |
| MASAASVTSLADEVNCPICQGTLREPVTINCGHNFCRACLTRYCEIPGPDLEESPTCPLCKEPFRPGSFRPNWQLANVVENIERLQLVSTLGLGEEDVCQEHGEKIYFFCEDDEMQLCVVCREAGEHATHTMRFLEDAAAPYREQIHKCLKCLRKEREEIQEIQSRENKRMQVLLTQVSTKRQQVISEFAHLRKFLEEQQSILLAQLESQDGDILRQRDEFDLLVAGEICRFSALIEELEEKNERPARELLTDIRSTLIRCETRKCRKPVAVSPELGQRIRDFPQQALPLQREMKMFLEKLCFELDYEPAHISLDPQTSHPKLLLSEDHQRAQFSYKWQNSPDNPQRFDRATCVLAHTGITGGRHTWVVSIDLAHGGSCTVGVVSEDVQRKGELRLRPEEGVWAVRLAWGFVSALGSFPTRLTLKEQPRQVRVSLDYEVGWVTFTNAVTREPIYTFTASFTRKVIPFFGLWGRGSSFSLSS [D30N] | with no effect |

The remaining lines, values ahead:

| effect of a mutation on the interaction | Variant |
| --- | --- |
| with no effect | MASAASVTSLADEVNCPICQGTLREPVTIDCGHNFCRACLTRYCEIPGPDLEESPTCPLCKEPFRPGSFRPNWQLANVVENIERLQLVSTLGLGEEDVCQEHGEKIYFFCEDDEMQLCVVCREAGEHATHTMRFLEDAAAPYREQIHKCLKCLRKEREEIQEIQSRENKRMQVLLTQVSTKRQQVISEFAHLRKFLEEQQSILLAQLESLDGDILRQRDEFDLLVAGEICRFSALIEELEEKNERPARELLTDIRSTLIRCETRKCRKPVAVSPELGQRIRDFPQQALPLQREMKMFLEKLCFELDYEPAHISLDPQTSHPKLLLSEDHQRAQFSYKWQNSPDNPQRFDRATCVLAHTGITGGRHTWVVSIDLAHGGSCTVGVVSEDVQRKGELRLRPEEGVWAVRLAWGFVSALGSFPTRLTLKEQPRQVRVSLDYEVGWVTFTNAVTREPIYTFTASFTRKVIPFFGLWGRGSSFSLSS [Q210L] |
| with no effect | MASAASVTSLADEVNCPICQGTLREPVTIDCGHNFCRACLTRYCEIPGPDLEESPTCPLCKEPFRPGSFRPNWQLANVVENIERLQLVSTLGLGEEDVCQEHGEKIYFFCEDDEMQLCVVCREAGEHATHTMRFLEDAAAPYREQIHKCLKCLRKEREEIQEIQSRENKRMQVLLTQVSTKRQQVISEFAHLRKFLEEQQSILLAQLESQDGDILKQRDEFDLLVAGEICRFSALIEELEEKNERPARELLTDIRSTLIRCETRKCRKPVAVSPELGQRIRDFPQQALPLQREMKMFLEKLCFELDYEPAHISLDPQTSHPKLLLSEDHQRAQFSYKWQNSPDNPQRFDRATCVLAHTGITGGRHTWVVSIDLAHGGSCTVGVVSEDVQRKGELRLRPEEGVWAVRLAWGFVSALGSFPTRLTLKEQPRQVRVSLDYEVGWVTFTNAVTREPIYTFTASFTRKVIPFFGLWGRGSSFSLSS [R216K] |

Variants of: B3
Conditions: with mdfi_human MDFI

| effect of a mutation on the interaction | Variant |
| --- | --- |
| with no effect | MLQTPESRGLPVPQAEGEKDGGHDGETRAPTASQERPKEELGAGREEGAAEPALTRKGARALAAKALARRRAYRRLNRTVAELVQFLLVKDKRKSPITRSEMVKYVIGDLKILFPDIIARAAEHLRYVFGFELKQFDRKHHTYILINKLKPLEEEEEEDLGGDGPRLGLLMMILGLIYMRGNSAREAQVWEMLRRLGVQPSKYHFLFGYPKRLIMEDFVQQRYLSYRRVPHTNPPEYEFSWGPRSNLEISKMEVLGFVAKLHKKEPQHWPVQYREALADEADRARAKARAEASMRARASARAGIHLW [K93R] |
